Source: the Human Domainome abundance scans (Beltran et al. 2025)
± gives the uncertainty stated by the source.

B1: KAT8 regulatory NSL complex subunit 2, residues 28 to 91; numbered along this chain, Q9H9L4 (parent)
chain: CAFTHRPCSHPRLEGQEFCIKHILEDKNAPFKQCSYISTKNGKRCPNAAPKPEKKDGVSFCAEH

Variants of: B1
Experiment: abundance fitness (aPCA) (normalised: wild type 0, dead -1); higher = more abundant; growth selection in yeast, the domain comes from the species named
Settings: Homo sapiens

**Q.** Which abundance fitness does the source give for CAFYHRPCSHPRLEGQEFCIKHILEDKNAPFKQCSYISTKNGKRCPNAAPKPEKKDGVSFCAEH [T4Y] here?
**A.** -0.15 ± 0.14

**Q.** Which abundance fitness does the source give for CAFNHRPCSHPRLEGQEFCIKHILEDKNAPFKQCSYISTKNGKRCPNAAPKPEKKDGVSFCAEH [T4N] here?
**A.** -0.201 ± 0.3

**Q.** Which abundance fitness does the source give for CAFKHRPCSHPRLEGQEFCIKHILEDKNAPFKQCSYISTKNGKRCPNAAPKPEKKDGVSFCAEH [T4K] here?
**A.** -0.378 ± 0.084

**Q.** Which abundance fitness does the source give for CAFLHRPCSHPRLEGQEFCIKHILEDKNAPFKQCSYISTKNGKRCPNAAPKPEKKDGVSFCAEH [T4L] here?
**A.** -0.53 ± 0.055

**Q.** Which abundance fitness does the source give for CAFMHRPCSHPRLEGQEFCIKHILEDKNAPFKQCSYISTKNGKRCPNAAPKPEKKDGVSFCAEH [T4M] here?
**A.** -0.788 ± 0.072

**Q.** For CAFQHRPCSHPRLEGQEFCIKHILEDKNAPFKQCSYISTKNGKRCPNAAPKPEKKDGVSFCAEH [T4Q], which abundance fitness is on record?
**A.** -0.494 ± 0.099

**Q.** With CAFTHRPCEHPRLEGQEFCIKHILEDKNAPFKQCSYISTKNGKRCPNAAPKPEKKDGVSFCAEH [S9E] as the variant, how does the abundance fitness read?
**A.** -0.191 ± 0.083

**Q.** With CAFTHRPCDHPRLEGQEFCIKHILEDKNAPFKQCSYISTKNGKRCPNAAPKPEKKDGVSFCAEH [S9D] as the variant, how does the abundance fitness read?
**A.** -0.121 ± 0.073

**Q.** Which abundance fitness does the source give for CAFTHRPCCHPRLEGQEFCIKHILEDKNAPFKQCSYISTKNGKRCPNAAPKPEKKDGVSFCAEH [S9C] here?
**A.** -0.123 ± 0.08

**Q.** Which abundance fitness does the source give for CAFTHRPCFHPRLEGQEFCIKHILEDKNAPFKQCSYISTKNGKRCPNAAPKPEKKDGVSFCAEH [S9F] here?
**A.** 0.008 ± 0.08

**Q.** With CAFTHVPCSHPRLEGQEFCIKHILEDKNAPFKQCSYISTKNGKRCPNAAPKPEKKDGVSFCAEH [R6V] as the variant, how does the abundance fitness read?
**A.** -0.081 ± 0.058

**Q.** Which abundance fitness does the source give for CAFTHSPCSHPRLEGQEFCIKHILEDKNAPFKQCSYISTKNGKRCPNAAPKPEKKDGVSFCAEH [R6S] here?
**A.** -0.055 ± 0.057

**Q.** With CAFTHPPCSHPRLEGQEFCIKHILEDKNAPFKQCSYISTKNGKRCPNAAPKPEKKDGVSFCAEH [R6P] as the variant, how does the abundance fitness read?
**A.** -0.047 ± 0.069

**Q.** Which abundance fitness does the source give for CAFTHCPCSHPRLEGQEFCIKHILEDKNAPFKQCSYISTKNGKRCPNAAPKPEKKDGVSFCAEH [R6C] here?
**A.** -0.032 ± 0.066

**Q.** With CAFTHIPCSHPRLEGQEFCIKHILEDKNAPFKQCSYISTKNGKRCPNAAPKPEKKDGVSFCAEH [R6I] as the variant, how does the abundance fitness read?
**A.** -0.034 ± 0.079

**Q.** For CAFTHQPCSHPRLEGQEFCIKHILEDKNAPFKQCSYISTKNGKRCPNAAPKPEKKDGVSFCAEH [R6Q], which abundance fitness is on record?
**A.** -0.072 ± 0.073

**Q.** With CAFTHAPCSHPRLEGQEFCIKHILEDKNAPFKQCSYISTKNGKRCPNAAPKPEKKDGVSFCAEH [R6A] as the variant, how does the abundance fitness read?
**A.** -0.167 ± 0.073

**Q.** For CAFTHTPCSHPRLEGQEFCIKHILEDKNAPFKQCSYISTKNGKRCPNAAPKPEKKDGVSFCAEH [R6T], which abundance fitness is on record?
**A.** -0.088 ± 0.066

**Q.** For CAFTHFPCSHPRLEGQEFCIKHILEDKNAPFKQCSYISTKNGKRCPNAAPKPEKKDGVSFCAEH [R6F], which abundance fitness is on record?
**A.** -0.016 ± 0.076

**Q.** With CAFTHWPCSHPRLEGQEFCIKHILEDKNAPFKQCSYISTKNGKRCPNAAPKPEKKDGVSFCAEH [R6W] as the variant, how does the abundance fitness read?
**A.** -0.118 ± 0.064

**Q.** For CAFTHGPCSHPRLEGQEFCIKHILEDKNAPFKQCSYISTKNGKRCPNAAPKPEKKDGVSFCAEH [R6G], which abundance fitness is on record?
**A.** -0.068 ± 0.055

**Q.** For CAFTHNPCSHPRLEGQEFCIKHILEDKNAPFKQCSYISTKNGKRCPNAAPKPEKKDGVSFCAEH [R6N], which abundance fitness is on record?
**A.** -0.133 ± 0.068

**Q.** Which abundance fitness does the source give for CAFTHKPCSHPRLEGQEFCIKHILEDKNAPFKQCSYISTKNGKRCPNAAPKPEKKDGVSFCAEH [R6K] here?
**A.** -0.032 ± 0.11

**Q.** With CAFTHYPCSHPRLEGQEFCIKHILEDKNAPFKQCSYISTKNGKRCPNAAPKPEKKDGVSFCAEH [R6Y] as the variant, how does the abundance fitness read?
**A.** -0.06 ± 0.09

**Q.** For CAFTYRPCSHPRLEGQEFCIKHILEDKNAPFKQCSYISTKNGKRCPNAAPKPEKKDGVSFCAEH [H5Y], which abundance fitness is on record?
**A.** -0.151 ± 0.093

**Q.** For CAFTLRPCSHPRLEGQEFCIKHILEDKNAPFKQCSYISTKNGKRCPNAAPKPEKKDGVSFCAEH [H5L], which abundance fitness is on record?
**A.** -0.068 ± 0.054

**Q.** With CAFTCRPCSHPRLEGQEFCIKHILEDKNAPFKQCSYISTKNGKRCPNAAPKPEKKDGVSFCAEH [H5C] as the variant, how does the abundance fitness read?
**A.** -0.112 ± 0.063

**Q.** Which abundance fitness does the source give for CAFTPRPCSHPRLEGQEFCIKHILEDKNAPFKQCSYISTKNGKRCPNAAPKPEKKDGVSFCAEH [H5P] here?
**A.** -0.146 ± 0.095

**Q.** Which abundance fitness does the source give for CAFTVRPCSHPRLEGQEFCIKHILEDKNAPFKQCSYISTKNGKRCPNAAPKPEKKDGVSFCAEH [H5V] here?
**A.** -0.023 ± 0.059

**Q.** For CAFTIRPCSHPRLEGQEFCIKHILEDKNAPFKQCSYISTKNGKRCPNAAPKPEKKDGVSFCAEH [H5I], which abundance fitness is on record?
**A.** -0.084 ± 0.1

**Q.** Which abundance fitness does the source give for CAFTGRPCSHPRLEGQEFCIKHILEDKNAPFKQCSYISTKNGKRCPNAAPKPEKKDGVSFCAEH [H5G] here?
**A.** -0.017 ± 0.056

**Q.** For CAFTARPCSHPRLEGQEFCIKHILEDKNAPFKQCSYISTKNGKRCPNAAPKPEKKDGVSFCAEH [H5A], which abundance fitness is on record?
**A.** -0.068 ± 0.045

**Q.** Which abundance fitness does the source give for CAFTKRPCSHPRLEGQEFCIKHILEDKNAPFKQCSYISTKNGKRCPNAAPKPEKKDGVSFCAEH [H5K] here?
**A.** -0.083 ± 0.14

**Q.** For CAFTSRPCSHPRLEGQEFCIKHILEDKNAPFKQCSYISTKNGKRCPNAAPKPEKKDGVSFCAEH [H5S], which abundance fitness is on record?
**A.** -0.144 ± 0.068

**Q.** For CAFTNRPCSHPRLEGQEFCIKHILEDKNAPFKQCSYISTKNGKRCPNAAPKPEKKDGVSFCAEH [H5N], which abundance fitness is on record?
**A.** -0.212 ± 0.12

**Q.** With CAFTERPCSHPRLEGQEFCIKHILEDKNAPFKQCSYISTKNGKRCPNAAPKPEKKDGVSFCAEH [H5E] as the variant, how does the abundance fitness read?
**A.** 0.017 ± 0.088

**Q.** Which abundance fitness does the source give for CAFTTRPCSHPRLEGQEFCIKHILEDKNAPFKQCSYISTKNGKRCPNAAPKPEKKDGVSFCAEH [H5T] here?
**A.** 0.034 ± 0.091

**Q.** Which abundance fitness does the source give for CAFTQRPCSHPRLEGQEFCIKHILEDKNAPFKQCSYISTKNGKRCPNAAPKPEKKDGVSFCAEH [H5Q] here?
**A.** 0.011 ± 0.063

**Q.** Which abundance fitness does the source give for CAFTRRPCSHPRLEGQEFCIKHILEDKNAPFKQCSYISTKNGKRCPNAAPKPEKKDGVSFCAEH [H5R] here?
**A.** -0.01 ± 0.058

**Q.** With CAFTWRPCSHPRLEGQEFCIKHILEDKNAPFKQCSYISTKNGKRCPNAAPKPEKKDGVSFCAEH [H5W] as the variant, how does the abundance fitness read?
**A.** -0.193 ± 0.081

**Q.** With CAFTMRPCSHPRLEGQEFCIKHILEDKNAPFKQCSYISTKNGKRCPNAAPKPEKKDGVSFCAEH [H5M] as the variant, how does the abundance fitness read?
**A.** -0.012 ± 0.081

**Q.** For CAFTFRPCSHPRLEGQEFCIKHILEDKNAPFKQCSYISTKNGKRCPNAAPKPEKKDGVSFCAEH [H5F], which abundance fitness is on record?
**A.** -0.096 ± 0.066
